Here are results for 2 molecules from patent publication US20240400691A1 (FBD BIOLOGICS, published 2024).

Experiment [1] addresses T1, human CD47 (human, UniProt Q08722 19-323).
T1 construct: whole, on cells; also called CD47 tf CHO-S; endogenous CD47 on FaDu and NCI-H460 cells
Kind of experiment: flow cytometry on CD47 tf CHO-S cells, PE goat anti-human IgG.
Description: To determine the whole cell binding ability of the HCB301_v5 proteins to CD47 expressed on cell surface, tf CHO-S cells expressing human CD47 (CD47 tf CHO-S) were used as target cells. […] The samples were analyzed using a CytoFLEX flow cytometer (Beckman Coulter Inc., CA, USA).
The EC50 values were determined according to the binding curves.

Experiment [2] concerns the target T2, human PD-L1 (human, UniProt Q9NZQ7 19-290).
T2 construct: whole, on cells; For the PD-L1 tf DLD1 cells the species of PD-L1 is not restated; also called PD-L1 tf CHO-S; PD-L1 tf DLD1
Nature of the experiment: flow cytometry on PD-L1 tf CHO-S cells, PE goat anti-human IgG; EC50 from the table under the curves. On the technique in general: A flow cytometer gives signals particle by particle.
Description: (§1) The samples were analyzed using a CytoFLEX flow cytometer (Beckman Coulter Inc., CA, USA).
The EC50 values were also determined according to the binding curves.

For experiment [3], the target named is T2, human PD-L1. Nature of the experiment: flow cytometry on PD-L1 tf DLD1 cells in a 1:1 mixture with DLD1 cells, PE goat anti-human IgG [D].
Description: The selective binding ability of HCB301_v5 proteins to PD-L1-expressing cells was determined as follows. DLD1 cells were labeled with CellTrace™ CFSE (Thermo, Cat #: C34554) and tf DLD1 cells expressing PD-L1 (PD-L1 tf DLD1) were labeled with Celltrace™ (Thermo, Cat #: C34557) according to the instructions provided by manufacturer. […] The samples were analyzed using a CytoFLEX flow cytometer (Beckman Coulter Inc., CA, USA). Afterwards, the cells were gated according to PE signals to calculate the percentages of different cell types by Kaluza analysis software (Beckman Coulter Inc.).
The target of experiment [4] is T2, human PD-L1. Kind of experiment: flow cytometry competition on PD-L1 tf CHO-S cells against a fixed concentration of biotinylated PD1_G4, streptavidin-PE; IC50 from the table under the curves.
Experiment [5] addresses T1, human CD47. Kind of experiment: flow cytometry on human platelets (CD47 on platelets per paragraph 5), PE goat anti-human IgG.
Description: as §1

T2 sequence (Q9NZQ7 19-290): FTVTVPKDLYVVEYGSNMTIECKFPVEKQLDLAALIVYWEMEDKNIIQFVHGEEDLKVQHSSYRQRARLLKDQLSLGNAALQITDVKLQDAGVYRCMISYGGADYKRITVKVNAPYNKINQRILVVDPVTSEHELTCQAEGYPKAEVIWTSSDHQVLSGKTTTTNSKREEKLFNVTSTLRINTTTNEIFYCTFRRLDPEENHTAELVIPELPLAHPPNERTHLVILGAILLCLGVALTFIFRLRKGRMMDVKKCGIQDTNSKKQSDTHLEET

B1: anti-PD-L1 VHH (2H4) (VHH)
VHH: QVQLVESGGGVVQPGRSLRLSCAASGGPFMSYAMGWFRQAPGKEREFVAAIRWNGISTFYADSVKGRFTISRDNSKNTLYLQMNSLRAEDTAVYYCAAAQTIVTVPENYHFDYWGQGTQVTVSS
Take B1: the binding result with human CD47 [1] is “no binding (tested: 500 nM)”. The molecule further displayed an EC50 in the experiment with human PD-L1 [2] of 0.22 nM. The “EC50 (read off the curve)” value with human PD-L1 [3] was ~0.8 nM. The concentration for half-maximal inhibition (IC50) in the experiment with human PD-L1 [4] amounted to 0.392 nM.

B2: h1G4 (antibody, human IgG4 S228P, kappa, V domains shown)
VH: QVQLVESGGGLVKPGGSLRLSCAASGFTFSNYGMSWIRQAPGKGLEWVSTISGGGSNIYYADSVKGRFTISRDNAKNSLYLQMNSLRAEDTAVYYCVSYYYGIDFWGQGTSVTVSS
VL: DIQMTQSPSSLSASVGDRVTITCKASQDVTTAVAWYQQKPGKAPKLLIYWASTRHTGVPSRFSGSGSGTDFTLTISSLQPEDFATYYCQQHYTIPWTFGGGTKLEIKR
notes: also called negative control
As for B2, in the experiment with human CD47 [5], the binding result is recorded as “no binding (tested: 20 nM)”.

The EC50 is the concentration at which the effect is half-maximal. Lower therefore signals greater potency. As a reminder, the EC50 (read off the curve) is the concentration that produces a half-maximal response. In general, IC50 refers to the concentration needed to halve the response being measured. Low values mean greater potency, high ones weaker potency.
